Assay results as given in paper doi:10.1101/2024.12.05.627070.
Each block holds one molecule with its values, some of them ahead of it.

Key:
[1] = biological target: Rad52 (295-408) (S. cerevisiae); assay: SEC-SAXS
[2] = biological target: Rad51 (in yeast cells) (S. cerevisiae) (UniProt P25454); assay: co-IP
[3] = biological target: T1, Rad51 (full length, recombinant) (S. cerevisiae), P25454; assay: SEC-SAXS; details: remark: other sources report otherwise
T1 chain: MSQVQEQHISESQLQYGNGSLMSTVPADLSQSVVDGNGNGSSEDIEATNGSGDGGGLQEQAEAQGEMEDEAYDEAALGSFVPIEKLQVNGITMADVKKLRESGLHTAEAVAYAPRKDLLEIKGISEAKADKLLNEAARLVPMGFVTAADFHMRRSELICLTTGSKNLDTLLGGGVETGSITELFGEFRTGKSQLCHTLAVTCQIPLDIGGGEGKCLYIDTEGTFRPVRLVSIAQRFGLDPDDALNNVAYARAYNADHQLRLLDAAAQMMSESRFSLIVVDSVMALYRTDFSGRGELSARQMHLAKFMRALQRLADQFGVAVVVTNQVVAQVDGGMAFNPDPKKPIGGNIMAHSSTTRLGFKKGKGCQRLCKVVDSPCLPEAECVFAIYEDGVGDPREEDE

Molecule: Rad52-T349A-FLAG (natural protein)
loss of interaction (%) against WT Rad52 [2]: 85%

B1: Rad51 (full length, recombinant), P25454 1-400 (natural protein)
chain: T1 chain
stoichiometry N [3]: 4

Other lines, results leading:

stoichiometry N [1]: 1
Molecule: Rad51 (full length, recombinant) (from UniProt P25454 1-400) (natural protein)

loss of interaction (%) against WT Rad52 [2]: 30%
Molecule: Rad52-K340E-FLAG (natural protein)
